System: K4 kissing-loop RNA reporter
Assay: apparent KD of K4 kissing-loop reporter; higher = weaker reporter binding
Details: Eterna round: R107; input ligand: arginine 13.2 mM
Procedure: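 RNA-MaP round R107: designed RNA switches with theophylline, tryptophan, arginine or FMN aptamers are transcribed on-chip within common flanks. They are titrated with a labelled K4 kissing-loop RNA reporter in RNA-MaP buffer (100 mM Tris pH 7.5, 80 mM KCl, 4 mM MgCl2), without ligand or with the indicated ligand. Median apparent KD per design.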
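Further: bound reporter read as fluorescence of individual clusters on recovered sequencing chips by microscopy, with normalized cluster intensities fitted with a binding model.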

Point of comparison: “UGAUACCAGACUGAUACCAGCCACAGAGUCAAAGACUCUGAUAAAGGAACCAGUGAUGUUGGCCCUUGGCAGCAGUCUGGUAUCU [TheoBX 24 #SwitchBubble #StaticStem]”, “apparent KD of K4 kissing-loop reporter” value 113 nM. Against it:
- UUCGAUCAGUGAUGUUGAUCAUCAGUCGAAGGAGCGCUAGAGAUAGCAGGUAGGUCGCGACUGCAAGGUGUGAGAACACCUCGAA [Arg A SS t9a] — 3.2-fold higher, 358 nM
- CAAAUAUGCGGUAGGUUCAAGCGCUGGGAAGGAGCGCAGAUGACUGCAGGUAGGUCGCCCAGUGAUGUUGGGCUUUCCACCUAUU [Edbeaan] — within 1.5-fold, 124 nM
- AAGGUUGUGCAUGGGAGUGAUGUUCCCACGCAGGAUAUCGCUCACGCGAGAAGGGCGAGCACAACCGCUCAAGAAACUUGAGCAA [Omei KL FMN A SS C v2] — within 1.5-fold, 118 nM
- CGUAGUUGGGCGGCCGCCACUUGAACAGCUUUGCCAAAGGCAGAGCUCUAGAGUGAUGUUCUGGCAAGGACCGGGUCCAACUACA [#02 K4 Tryptophan B Same State] — 6.9-fold higher, 777 nM
- AGAUGACACCGAGGAUAUCCUAAUAUGGGUGAUGUUAGCGAUGUUGAAGGUGUAGUGAUGUUAUGCGGAGAAGGCGGUGUUGUUU [BDazzled - #21 - Exc. FMN B] — within 1.5-fold, 103 nM
- CGCAAGCAGCCAGUGAUGUUGGCCGCCUUGCGAGGACCGGUACGGCCGCCACUCGAAGGCGGCUAGUAGUAGUCUGUCUAACGGA [KL-XTryp-A16] — within 1.5-fold, 107 nM
- AAUAAGCGCGGAAGGAGCGCCGCCAGUGAUGUUGGGAGUUAGAUACCAGUGAUGUUGGGCCGGCAGGUAGGUCGCCGCAAAGCUU [Exclusion Arginine B Gf 14] — within 1.5-fold, 86.5 nM
- AUUCUGUUUUUGAUGUUUUUUGUAUAAUGGCAGGAUAUCGUAGAAGCGAGAAGGGCUUUUAUGCGUUAUGAGUGAUGUUUGUAGG [ttytewvmullin] — 2-fold higher, 222 nM
- CCCGGUCCACGAAGGAGCGCCGUGCAGUGAUGUUGCAGUUAGAUCCAGUGAUGUUUGGGCCGGCAGGUAGGUCGCGUGGCCCGGG [Excusion Arginine B GF 24] — 1.7-fold higher, 197 nM
- GGUAGCAUGGCGGCCGCCACUGUUCGUGUUGCUAGCAGAUUCCAGUGAUGUUGGAAGCCUAGGUACAGGACCGGGCCAUGCUACC — within 1.5-fold, 115 nM
- CCGCUGCCCUCAGGAUAUUAAGUAUUAGUGAUGUUAGUAAACCGAUGGCGAAAGCCAUCGGUAUGUUGAGAAGGGAGGGUAGCGG [whbob_SS_FMNB__2th199] — 5.5-fold higher, 627 nM
- AGUGAUGUGGGAAGGAGCGGUAGAUGAGUUCAGUGAUGUUGAAGUGAUGCUGUAGUGAUGUGCCAGGUAGGUCGCCUAGAUGUUA [KL-XARG B24] — within 1.5-fold, 162 nM
- CUUGUACAAGUGAUGUUUGUUAUAUCCGAAGGAGCGUCGUAAUAGACAGGUAGGUCGCGGAGUAAGAUAGUUUUUUUAAUAUCAU [JR_Nu_SSArginiA_Sub029] — 3-fold higher, 338 nM
- UAGUGUCGCGCAGGAUAUACUGAUUGGAGUGAUGUUCCAAACAUGAACGUGAGACUUUUACAAGAAGUAGAAGGGCGUGAGACAU [Exclusion FMN B GF 21] — 2.8-fold higher, 320 nM
- CGGAUGUAGUGAUGUUAUAUAAGAUGUAGACGAGGACCGGUACGGCCGCCACUCGAAACGGCUACUAGCGCGUUGCGAGGUGUGC [ExTryptoA.CI] — 4.1-fold higher, 460 nM
- GUUACGCAUGGAAGGAGCGCAGGCUCAACAAAUAGCUCAGUGAUGUUGAGCAUAUUAAAACUGCAGGUAGGUCGCCAUGUGUAAC [Ex Arginine B K4 23] — 4.8-fold higher, 547 nM
- AAAUGCAGCAAACGAGUGAUGUUCGACGAUACCAGCCUCGAUAGAGGCCCUUGGCAGCGUACAUCAAAGCCAAGGGCUGCUAAAA [#SwitchBubble 3] — 4.1-fold higher, 463 nM
- UUAUAUCUCUGACUUUCACUUUGCGUAUCUGAGGAUAUCUGAAUUCAGAGAAGGCAGUGAUGUUGCUUUGCUGUGUGUCUGAGAA [AK2 Exc FMN A] — 4.1-fold higher, 464 nM
- UCCUCGAAUCGACCUCGAAAGAGGAUGGAUACCAGUCUUGAUAAAGACCCUUGGCAGCCAGUGAUGUUGGAACGAGGUAAAUAAA [#SwitchBubble 19 #K4Late] — 3.2-fold higher, 365 nM
- GUCUAGCUAGCAGGAUAUAGCUGGUAGUGAUGUUACCACUAGAACUCUGCGGAAACGCAGAGUAUCCUAGAAGGGCUAGCUAGAC — 1.7-fold lower, 65 nM
- UUUGGAAGCGGUGUUGAUUAGGGAGCGGAAGGAGCGCCGAUUAUGGCAGGUAGGUCGCCGGAAUGUAGUGAUGUUGCAUAGAGGU [ExArgA.X] — within 1.5-fold, 130 nM
- GGAGGGAUCUCGGCCGCCACUCAUAAGAAAUGAACCUCAGAAAUAUAGUGAUGUUAUAUAAAGAAGAGGACCGGGAGAAAGGAGG [ExTryptoB.B] — within 1.5-fold, 137 nM
- UGACUGGACUGAAGGAGCGGGAAACUCCUAGUGAUGUUAGGAAUACGAGACAAAGUCUCGACCCAGGUAGGUCGCAGUCUAGUCU [ArgBS 17 #SwitchBubble #StaticStem] — within 1.5-fold, 93.3 nM
- AGAGUUGACGAAAAGUCAACUCUACGAGAAGGAGCGCACGAAAGUGCAGGUAGGUCGCUCAGUCCAGUGAUGUUGGAACAUAAAA [#OpenEnded 8] — within 1.5-fold, 101 nM
- ACCUACCAUUAGUGAUGUUAAUGGACGGAAGGAGCGCGGAUAUCCGCAGGUAGGUCGCCGAAGGCUAGACAUUGUCUAGCCAUUA [AK1.2 SS Arginine A] — 1.6-fold higher, 186 nM
- CUCGUGGGUUUGAGAGGGCUUGUGGGAAGUGAGGAUAUUUAGGGAGAAAGAAGGCACUAUAGAAUAUAGUGAUGUUAUAUAAGGG [SSFMNA.N] — within 1.5-fold, 95.7 nM
- AUUAAUUUCAGAGGAUAUCGUUAUUUUUUAUAGUAUAUUCAAUUAUGCAGUGAUGUUGCUAUUAAUCGAGAAGGCUGAUUUAUAA [JR_ExcFMNB_Sub002] — 1.8-fold higher, 204 nM
- AGACUACCACACUGUCAAUAGACAGUGUACUAGGAUAUGCUGAUAAGCAGAAGGAGUGAUGUUCCUUGGUAGUCAAUAAAAUAAU [FmnAX 13 U28+U67] — 2.1-fold higher, 237 nM
- GUUGCAGCCCGUGAUACCAGCAUCGGUCGCCGGGUCCAGUGAUGUUGGGCUUGCGUUCUAUGCCCUUGGCAGCGCGGCCUGACAG [Qulaanar] — within 1.5-fold, 104 nM
- UGAUAAAGCAGUGAUGUUGCAAGAAAUGAUACCAGUUAAGAAGAGAACCCUUGGCAGCAUAAAGUGCGCUCUAAUGAGUGUGCUU [whbob_SS_Theo_A_w50] — within 1.5-fold, 143 nM
- CCAUCGCUAUUCGAUACCAGUCAUAAAAUCUUUGGUUAAAUAAAGGAGUGAUGUUCCAAAGACCCUUGGCAGCGAAUAGUGAUGG [Theophylline B K4 6] — 5.5-fold higher, 624 nM
- GUGCAGUGAUGUUGCACGAGGAAAGACGAUACCAGCCGCAAAUGUGGCCCUUGGCAGCGUGGGCUAGCACAAAAUAUGCUAGUCU [Ricegeusat] — the same, 113 nM

Same assay, conditions: Eterna round: R107; input ligand: none

Point of comparison: “AGAUGACACCGAGGAUAUCCUAAUAUGGGUGAUGUUAGCGAUGUUGAAGGUGUAGUGAUGUUAUGCGGAGAAGGCGGUGUUGUUU [BDazzled - #21 - Exc. FMN B]”, “apparent KD of K4 kissing-loop reporter” value 216 nM. Against it:
- AGACUACUGAUAGGAUAUAACAUACUACUCGUAUACCGAAAGGUAUACGAGACCCUUCUAGUGAUGUUAGAAGGGUCGGUAGUCA [Omei KL FMN B Exc B v8] — 3.2-fold lower, 68.1 nM
- GAAUGAAAUAUCUGGCCCUAUCAGAAUUGGAAGGAUAUGACGGUCAUCAGAAGGUCCAACUCGUAGUGAUGUUGCGGGUUUUAAA [theeternabot_exclusion_KL_FMN_A_21] — 5.2-fold lower, 41.4 nM
- UGGAUAUAGUGAUGUUAUAUAGAGAUGGAUACCAGUUAAGAGAAUAGCCCUUGGCAGCCGAAAGAAGUAUCAUUAGAGAAGAAUG [ExTheophyl.Ad] — within 1.5-fold, 239 nM
- AGGCGCUUAAGUCAGUGAUGUUGAUUAUAUCGAGGACCGGUACGGCCGCCACUCGGCUUUCAUCCGCCAUCGUAGUCCUAAAACC [theeternabot_sameState_KL_Trp_A_25] — 2.6-fold higher, 559 nM
- UGAACUUUUGCUAGGAACCGUCUAGCUCUUUAGGAUAUCUGGAAACAGAGAAGGAAAGACCUACAGAGUGAUGUUCUGCGUUCAU — within 1.5-fold, 316 nM
- AGAGUUAAUUAGUCUUUUUUUACAUUAAGUCAGGAUAUCGUAUAUUCGAGAAGGGACACAUGCUAGUGAUGUUAGCUAUUUCUCA [JR_Nu_ExcFMNA_Sub019] — 4.5-fold lower, 47.5 nM
- AGAUCUAAGCUGAGUUAGUCACCAUAAAGCAAGGAUAUUCCACGAAGAAGAAGGUGCAUCAUCCAUAGUGAUGUUAUGGCACGGG [theeternabot_sameState_KL_FMN_A_7] — 3.7-fold higher, 807 nM
- GCCGUAGAUGGAAGGAGCGUGUCAAAGUGAUGUUUUGAUUAACUCCCUACGGGAUAGAUGACACAGGUAGGUCGCCAUCUACGGC — 2.5-fold lower, 86.9 nM
- GCCGUAGAUUGAAGGAGCGGCACCCACGGCUCUAACACCUAAGUGAUGUUUAGGUAGUGGUGCCAGGUAGGUCGCAAUCUACGGC — 1.7-fold lower, 124 nM
- GUGUGACUAGUGAUGUUGGUUGCGUGGGAAGGAGCGCAGUAAAAUGCAGGUAGGUCGCCCGUAUCUCUGAUAAAAGAUUAAUUCA [KL-SSArg-A10] — within 1.5-fold, 158 nM
- GCACUGAAGUGAUGUUUUUGUGCACGUUGAAAGGAUAUCUGCUUGUAGAGAAGGUUCUGUUUGUGCGGAGCGGGCGUUACCGGCA [theeternabot_exclusion_KL_FMN_A_32] — within 1.5-fold, 310 nM
- UUCGAUCAGUGAUGUUGAUCAUCAGUCGAAGGAGCGCUAGAGAUAGCAGGUAGGUCGCGACUGCAAGGUGUGAGAACACCUCGAA [Arg A SS t9a] — 2.3-fold higher, 487 nM
- CAAAUAUGCGGUAGGUUCAAGCGCUGGGAAGGAGCGCAGAUGACUGCAGGUAGGUCGCCCAGUGAUGUUGGGCUUUCCACCUAUU [Edbeaan] — 1.6-fold lower, 132 nM
- AAGGUUGUGCAUGGGAGUGAUGUUCCCACGCAGGAUAUCGCUCACGCGAGAAGGGCGAGCACAACCGCUCAAGAAACUUGAGCAA [Omei KL FMN A SS C v2] — 1.6-fold lower, 133 nM
- CGUAGUUGGGCGGCCGCCACUUGAACAGCUUUGCCAAAGGCAGAGCUCUAGAGUGAUGUUCUGGCAAGGACCGGGUCCAACUACA [#02 K4 Tryptophan B Same State] — 5.7-fold higher, 1240 nM
- CGCAAGCAGCCAGUGAUGUUGGCCGCCUUGCGAGGACCGGUACGGCCGCCACUCGAAGGCGGCUAGUAGUAGUCUGUCUAACGGA [KL-XTryp-A16] — 1.9-fold lower, 112 nM
- AAUAAGCGCGGAAGGAGCGCCGCCAGUGAUGUUGGGAGUUAGAUACCAGUGAUGUUGGGCCGGCAGGUAGGUCGCCGCAAAGCUU [Exclusion Arginine B Gf 14] — within 1.5-fold, 165 nM
- AUUCUGUUUUUGAUGUUUUUUGUAUAAUGGCAGGAUAUCGUAGAAGCGAGAAGGGCUUUUAUGCGUUAUGAGUGAUGUUUGUAGG [ttytewvmullin] — within 1.5-fold, 271 nM
- CCCGGUCCACGAAGGAGCGCCGUGCAGUGAUGUUGCAGUUAGAUCCAGUGAUGUUUGGGCCGGCAGGUAGGUCGCGUGGCCCGGG [Excusion Arginine B GF 24] — within 1.5-fold, 250 nM
- GGUAGCAUGGCGGCCGCCACUGUUCGUGUUGCUAGCAGAUUCCAGUGAUGUUGGAAGCCUAGGUACAGGACCGGGCCAUGCUACC — 1.6-fold lower, 131 nM
- CCGCUGCCCUCAGGAUAUUAAGUAUUAGUGAUGUUAGUAAACCGAUGGCGAAAGCCAUCGGUAUGUUGAGAAGGGAGGGUAGCGG [whbob_SS_FMNB__2th199] — 3.1-fold higher, 662 nM
